How the values were obtained:
[1] = molecular target: human cathepsin K (human) (UniProt P43235)
[2] = molecular target: recombinant F. hepatica cathepsin L1 (Fasciola hepatica)
[3] = molecular target: recombinant F. hepatica cathepsin L2 (Fasciola hepatica)
[4] = molecular target: human cathepsin L (human)
[5] = molecular target: human cathepsin K (human) (UniProt P43235); experiment: enzyme inhibition kinetics (fluorogenic substrate, Morrison tight-binding fit); inhibitor serially diluted (20 to 0.1 nM) against each cysteine protease; 50 mM citrate phosphate buffer pH 5.5, 2 mM DTT, 0.01% Brij L23; 37 °C; substrate at its Km; Ki worked out from the apparent Ki
[6] = molecular target: recombinant F. hepatica cathepsin L1 (Fasciola hepatica); experiment: as above
[7] = molecular target: recombinant F. hepatica cathepsin L2 (Fasciola hepatica); experiment: as above
[8] = molecular target: human cathepsin L (human); experiment: as above
bovine trypsin (bovine) [9] = experiment: enzyme inhibition kinetics (fluorogenic substrate, Morrison tight-binding fit); inhibitor serially diluted against trypsin (42 nM); 100 mM sodium phosphate buffer pH 7.6, 1 mM HCl, 20 mM Ca, 0.01% Brij L23; substrate Z-Leu-Arg-NHMec
bovine trypsin (bovine) [10] = molecular target: bovine trypsin (bovine)

Chain of human cathepsin K (human) (P43235 115-329): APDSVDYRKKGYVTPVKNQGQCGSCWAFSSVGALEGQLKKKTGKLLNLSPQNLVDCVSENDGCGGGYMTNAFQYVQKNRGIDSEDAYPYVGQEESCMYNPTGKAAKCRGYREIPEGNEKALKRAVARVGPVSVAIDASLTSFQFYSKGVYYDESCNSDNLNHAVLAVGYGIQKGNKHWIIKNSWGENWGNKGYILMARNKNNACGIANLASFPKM

## recombinant Fasciola hepatica Kunitz-type protease inhibitor FhKT1 (natural protein)
[1]
  reduction of protease activity (fluorogenic substrate) by 300 nM rFhKT1: 99.5%
[2]
  reduction of protease activity (fluorogenic substrate) by 300 nM rFhKT1: 98.9%
[3]
  reduction of protease activity (fluorogenic substrate) by 300 nM rFhKT1: 90.3%
[4]
  reduction of protease activity (fluorogenic substrate) by 300 nM rFhKT1: 96.8%
[5]
  Ki: 5 nM
[6]
  Ki: 0.4 nM
[7]
  Ki: 10 nM
[8]
  Ki: 1.6 nM

## recombinant FhKT1Leu15/Arg15 variant (natural protein)
Bovine trypsin (bovine) [9]
  Ki: 1.5 nM
[5]
  Ki: 10 nM
[6]
  Ki: 0.7 nM
[7]
  Ki: 27 nM
[8]
  Ki: 3 nM
Bovine trypsin (bovine) [10]
  reduction of trypsin activity (fluorogenic substrate) by 300 nM rFhKT1Leu15/Arg15: 88.9%
